Experiment [1] has as its system iPS cells. Kind of experiment: Growth evaluation, growth curves over 8 days. Format: cell-based, human. How it is done:
The iPS cells collected in the same manner as in <Cell adhesiveness evaluation 1> were seeded into a 96-well plate, onto which RCP-1, RCP-21, and natural human vitronectin were adsorbed, at a ratio of 250 cells/well and cultured for 8 days in a 5% CO2 incubator at 37° C. The number of adhesive cells after different days of culture was measured in the same manner as in <Cell adhesiveness evaluation 1>, thereby obtaining growth curves. […] In FIG. 2, a black rhombus indicates a case using RCP-1, and a black square indicates a case using RCP-21.
From the increase and decrease in the obtained number of cells, the doubling time was calculated. As a result, it was confirmed that it takes 46.4±2.1 hours for the number of cells to be doubled in a case where RCP-1 is used, and 67.7±2.1 hours in a case where RCP-21 is used.

Another experiment has as its system human iPS cells ("Tic"). Kind of experiment: Cell adhesiveness evaluation 1 (ALP activity of adhesive iPS cells). It is filed as cell-based. The settings on record: added amount 200 pmol/cm^2; 30,000 cells/well, 24 hours; natural vitronectin (sample 15) = 100%; n=3. The procedure, abridged: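 Peptides and controls were adsorbed onto wells for 2 h at 37 °C. Single-cell human iPS cells in TeSR2 with 10 μM Y-27362 were seeded at 30,000 cells/well. After 24 h, non-adherent cells were washed off and adherent cells fixed; cell number came from ALP activity via a calibration curve. Adhesion is expressed relative to natural vitronectin (100%), n=3.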

Experiment [2] has as its system iPS cells. Kind of experiment: Evaluation of maintenance of undifferentiated state (reference examples). Format: cell-based, human. How it is done:
iPS cells collected in the same manner as in <Cell adhesiveness evaluation 1> were suspended in TeSR2. The iPS cells were seeded into 6-well plate (Tissue culture-treated, Falcon), onto which each of the samples 1, 2, 5, 6, and 7 used in <Cell adhesiveness evaluation 1> was adsorbed in the same manner as in <Cell adhesiveness evaluation 1>, and cultured in a CO2 incubator at 37° C. Except for the day after the seeding, the medium was replaced every day. In the same method as described above, the cells were subcultured every six days.
After being cultured for 1 month under the conditions described above, the cells were immobilized using 4% paraformaldehyde and treated with 1% Triton-X/PBS so as to enhance the membrane permeability. After the cells were subjected to a blocking treatment using an Image IT Signal Enhancer (Invitrogen), an anti-human NANOG antibody (AF 1997, R&D Systems, Inc.), an Alexa Fluor 555 binding rabbit anti-goat IgG antibody (Invitrogen), and DAPI (4′,6-diamidino-2-phenylindole, Dojindo Molecular Technologies, Inc.) were added thereto for labeling, and the cells were imaged using a fluorescence microscope.
FIGS. 3A and 4A show the iPS cells cultured on RCP-1; FIGS. 3B and 4B show the iPS cells cultured on RCP-11; FIGS. 3C and 4C show the iPS cells cultured on natural human vitronectin; FIGS. 3D and 4D show the iPS cells cultured on rLaminin-5; and FIGS. 3E and 4E show the iPS cells cultured on rLaminin-511. The scale bar in the images indicates […]. In FIGS. 3A to 3E, the images on the left side are full images of the colony, and the images on the right side are magnified images. In FIGS. 4A to 4E, the images on the left side are images of the cells stained with DAPI, and the images on the right side are images of the cells stained with an anti-NANOG antibody. The scale bar in FIGS. 3A to 4E indicates 200 μm.

B1: RCP-21: comparative polypeptide, SEQ ID NO: 26; positions 1-459, having the sequence of human vitronectin (protein)
chain: GPLGDQESCKGRCTEGFNVDKKCQCDELCSYYQSCCTDYTAECKPQVTRGDVFTMPEDEYTVYDDGEEKNNATVHEQVGGPSLTSDLQAQSKGNPEQTPVLKPEEEAPAPEVGASKPEGIDSRPETLHPGRPQPPAEEELCSGKPFDAFTDLKNGSLFAFRGQYCYELDEKAVRPGYPKLIRDVWGIEGPIDAAFTRINCQGKTYLFKGSQYWRFEDGVLDPDYPRNISDGFDGIPDNVDAALALPAHSYSGRERVYFFKGKQYWEYQFQHQPSQEECEGSSLSAVFEHFAMMQRDSWEDIFELLFWGRTSAGTRQPQFISRDWHGVPGQVDAAMAGRIYISGMAPRPSLAKKQRFRHRNRKGYRSQRGHSRGRNQNSRRPSRATWLSLFSSEESNLGANNYDDYRMDWLVPATCEPIQSVFFFSGDKYYRVNLRTRRVDTVDPPYPRSIAQYWLGCPAPGHL
modifications: Vitronectin-derived Recombinant Protein (RCP-21)
In the case of B1, the doubling time in the experiment on iPS cells [1] (250 cells/well, cultured for 8 days) worked out at 67.7 ± 2.1 h. For the same molecule, the “number of cells on Day 8 of culture as fraction of the number with RCP-1” value with iPS cells [1] (FIG. 2) is listed as “about ⅓”. Besides, in the experiment with human iPS cells ("Tic"), the “Cell adhesion rate (%)” value turned out to be 93.5 ± 7.9%. For the same molecule, the “form of iPS cell colony” value in the experiment on iPS cells [2] (TeSR2, subcultured every six days, FIGS. 3A to 3E) is on record as “form specific to undifferentiated cells”. The “NANOG expression” value in the experiment on iPS cells [2] (cultured for 1 month in TeSR2, anti-NANOG staining, FIGS. 4A to 4E) is on record as “strongly expressed NANOG in the entirety of the colony”.

Values taken from patent publication US10487307B2, “Culture method for pluripotent stem cells” (FUJIFILM CORPORATION, priority 2013, dated 2019).
